Experiment [1] has as its target HLA-A*03:01. The experiment can be described thus: IEDB peptide-MHC binding, purified MHC/direct/fluorescence; filed as Kd, often an IC50 or EC50 that approximates it; ≥ and ≤ were set here for values at or beyond the usual limits of such assays.
In the next experiment the target is HLA-A*11:01. Described as above.
A further experiment addresses HLA-A*29:02. Described as above. The note with it: source organism: West Nile virus.
In another experiment the target is HLA-A*31:01. The experiment is described as above.
A further experiment concerns the target HLA-B*15:01. The description is as above.
Another experiment addresses HLA-B*15:09. The description is as above.
Another experiment has as its target HLA-B*18:01. The experiment is described as above.
The target of the next experiment is HLA-B*27:05. The description is as above.
Another experiment has as its target HLA-B*39:01. The experiment is described as above.
The target in another experiment is HLA-B*40:01. Described as above.
Another experiment deals with HLA-B*44:02. The experiment is described as above. The note with it: source organism: West Nile virus.
Another experiment concerns the target HLA-B*46:01. The description is as above.
The target of a further experiment is HLA-B*48:01. Described as above.
A further experiment addresses HLA-B*57:01. Described as above.
The target in the next experiment is HLA-B*58:01. The description is as above.
For the next experiment, the target named is HLA-C*05:01. The description is as above.
For the next experiment, the target named is HLA-B*51:01. The experiment is described as above. The note with it: source organism: Human alphaherpesvirus 1.
The next experiment addresses HLA-A*32:15. The experiment can be described thus: IEDB peptide-MHC binding, purified MHC/competitive/fluorescence; filed as Kd, often an IC50 or EC50 that approximates it; ≥ and ≤ were set here for values at or beyond the usual limits of such assays. The note with it: source organism: Human alphaherpesvirus 1.
The next experiment deals with HLA-B*15:42. Described as above.
For another experiment, the target named is HLA-B*45:06. The description is as above.
The next experiment has as its target HLA-B*83:01. The experiment is described as above.
In the next experiment the target is HLA-A*01:01. The experiment can be described thus: IEDB peptide-MHC binding, purified MHC/direct/fluorescence; filed as Kd, often an IC50 or EC50 that approximates it; ≥ and ≤ were set here for values at or beyond the usual limits of such assays.
A further experiment concerns the target HLA-A*26:01. The experiment is described as above. The note with it: source organism: Coxiella burnetii RSA 493.
A further experiment deals with HLA-A*26:02. The experiment is described as above. The note with it: source organism: Coxiella burnetii RSA 493.
The target in a further experiment is HLA-B*07:02. The description is as above.
In the next experiment the target is HLA-B*08:01. The experiment is described as above. The note with it: source organism: Coxiella burnetii RSA 493.
The next experiment addresses HLA-B*08:02. The description is as above.
The target in experiment [2] is HLA-B*15:17. The description is as above. The note with it: source organism: Coxiella burnetii.
The next experiment deals with HLA-A*26:03. The experiment can be described thus: IEDB peptide-MHC binding, purified MHC/competitive/fluorescence; filed as Kd, often an IC50 or EC50 that approximates it; ≥ and ≤ were set here for values at or beyond the usual limits of such assays. The note with it: source organism: Coxiella burnetii Dugway 5J108-111.
For the next experiment, the target named is HLA-A*68:02. The description is as above. The note with it: source organism: Coxiella burnetii Dugway 5J108-111.
The next experiment has as its target HLA-A*02:01. Put plainly: IEDB peptide-MHC binding, purified MHC/direct/fluorescence; filed as Kd, often an IC50 or EC50 that approximates it; ≥ and ≤ were set here for values at or beyond the usual limits of such assays. The note with it: source organism: Giardia lamblia ATCC 50803.
For another experiment, the target named is HLA-B*38:01. The experiment is described as above. The note with it: source organism: Giardia lamblia ATCC 50803.
The target of a further experiment is HLA-A*69:01. The experiment can be described thus: IEDB peptide-MHC binding, purified MHC/competitive/fluorescence; filed as Kd, often an IC50 or EC50 that approximates it; ≥ and ≤ were set here for values at or beyond the usual limits of such assays. The note with it: source organism: Giardia lamblia ATCC 50803.
Experiment [3] addresses HLA-B*15:17. The description is as above. The note with it: source organism: Giardia lamblia ATCC 50803.
A further experiment concerns the target HLA-C*03:03. Put plainly: IEDB peptide-MHC binding, purified MHC/direct/fluorescence; filed as Kd, often an IC50 or EC50 that approximates it; ≥ and ≤ were set here for values at or beyond the usual limits of such assays. The note with it: source organism: Vibrio vulnificus YJ016.
In experiment [4] the target is HLA-A*03:01. Put plainly: IEDB peptide-MHC binding, purified MHC/competitive/fluorescence; filed as Kd, often an IC50 or EC50 that approximates it; ≥ and ≤ were set here for values at or beyond the usual limits of such assays. The note with it: source organism: Vibrio vulnificus YJ016.
The target of another experiment is HLA-B*27:20. The description is as above. The note with it: source organism: Vibrio vulnificus YJ016.
The target of another experiment is HLA-B*40:13. Described as above. The note with it: source organism: Vibrio vulnificus YJ016.
Another experiment has as its target HLA-C*04:01. The experiment is described as above. The note with it: source organism: Vibrio vulnificus YJ016.
A further experiment addresses HLA-C*06:02. Described as above. The note with it: source organism: Vibrio vulnificus YJ016.
A further experiment deals with HLA-C*14:02. Described as above. The note with it: source organism: Vibrio vulnificus YJ016.
Setting [5] is: source organism: West Nile virus.
Where [6] appears, read: source organism: Human alphaherpesvirus 1.
Setting [7] is: source organism: Coxiella burnetii.
Where [8] appears, read: source organism: Giardia lamblia ATCC 50803.
The mark [9] stands for this setting: source organism: Vibrio vulnificus YJ016.

This passage reports Kd results from the Immune Epitope Database (IEDB).

In the case of TSDYINTSL, the Kd (commonly the free concentration of one partner at which half of the binding sites on the other are occupied at equilibrium, for simple one-to-one binding) with HLA-A*03:01 [1] (setting [5]) was no less than 20 µM; with HLA-A*11:01 (setting [5]), no less than 20 µM; with HLA-A*29:02 it was no less than 20 µM; with HLA-A*31:01 (setting [5]), no less than 20 µM; in the experiment with HLA-B*15:01 (setting [5]), no less than 20 µM; with HLA-B*15:09 (source organism: West Nile virus strain PTRoxo), no less than 5 µM. For the same sequence, the Kd with HLA-B*18:01 (setting [5]) was no less than 20 µM; with HLA-B*27:05 (setting [5]), no less than 20 µM; in the experiment with HLA-B*39:01 (setting [5]), 1480 nM; with HLA-B*40:01 (setting [5]), no less than 20 µM; with HLA-B*44:02, no less than 20 µM; with HLA-B*46:01 (setting [5]), no less than 20 µM. Further, the Kd with HLA-B*48:01 (setting [5]) is no less than 20 µM; with HLA-B*57:01 (setting [5]), no less than 20 µM; with HLA-B*58:01 (setting [5]) it was no less than 20 µM; with HLA-C*05:01 (setting [5]) it was 210 nM.
For MPYAAHDPI, the Kd in the experiment with HLA-B*51:01 was 364 nM; in the experiment with HLA-C*05:01 (setting [6]), no less than 20000 nM; in the experiment with HLA-A*32:15, 136 nM; with HLA-B*15:42 (setting [6]), no less than 5 µM; in the experiment with HLA-B*45:06 (setting [6]), no less than 5 µM; with HLA-B*83:01 (setting [6]), 172 nM.
In the case of IIGLLKIFR, the Kd in the experiment with HLA-A*01:01 (setting [7]) was no less than 20000 nM; with HLA-A*03:01 [1] (setting [7]), 0.407 µM; with HLA-A*11:01 (setting [7]), 0.225 µM; with HLA-A*26:01, no less than 20 µM; in the experiment with HLA-A*26:02, no less than 20 µM; in the experiment with HLA-A*31:01 (setting [7]), 0.0227 µM. Also, the Kd in the experiment with HLA-B*07:02 (setting [7]), with HLA-B*08:01, with HLA-B*08:02 (source organism: Coxiella burnetii RSA 493), in the experiment with HLA-B*15:01 (setting [7]), with HLA-B*15:17 [2] and with HLA-B*18:01 (setting [7]) was no less than 20 µM each time. The Kd with HLA-B*27:05 (setting [7]), with HLA-B*40:01 (setting [7]), with HLA-B*46:01 (setting [7]), in the experiment with HLA-B*48:01 (setting [7]), with HLA-B*57:01 (setting [7]) and with HLA-B*58:01 (setting [7]) was no less than 20 µM each time. Further, the Kd with HLA-A*26:03 was no less than 20 µM; in the experiment with HLA-A*68:02, 1320 nM.
Turning to ETESVNSNY, the Kd was 18.8 nM with HLA-A*01:01 (setting [8]); no less than 20 µM with HLA-A*02:01; no less than 20 µM in the experiment with HLA-A*03:01 [1] (setting [8]); no less than 20 µM with HLA-A*11:01 (setting [8]); no less than 20 µM in the experiment with HLA-A*31:01 (setting [8]); no less than 20 µM with HLA-B*07:02 (setting [8]). In addition, the Kd with HLA-B*08:02 (setting [8]) is no less than 20 µM; with HLA-B*15:01 (setting [8]), no less than 20 µM; with HLA-B*15:09 (setting [8]), no less than 20 µM; with HLA-B*27:05 (setting [8]) it was no less than 20 µM; with HLA-B*38:01 it was no less than 20 µM; with HLA-B*39:01 (setting [8]), no less than 20000 nM. The Kd with HLA-B*40:01 (setting [8]), with HLA-B*46:01 (setting [8]), with HLA-B*48:01 (setting [8]), in the experiment with HLA-B*57:01 (setting [8]), in the experiment with HLA-B*58:01 (setting [8]) and with HLA-A*69:01 was no less than 20 µM throughout. In the experiment with HLA-B*15:17 [3], the Kd was no less than 20 µM.
Regarding KMFNRASYF, the Kd with HLA-C*03:03 was 2720 nM; with HLA-A*03:01 [4], 4.8 nM; in the experiment with HLA-B*15:42 (setting [9]) it was no less than 5 µM; with HLA-B*27:20, 1.2 nM; with HLA-B*40:13, 2.4 nM; with HLA-B*45:06 (setting [9]), no less than 5 µM. In addition, the Kd is no less than 5000 nM with HLA-B*83:01 (setting [9]), 304 nM with HLA-C*04:01, 68 nM in the experiment with HLA-C*06:02 and 4 nM with HLA-C*14:02.
